Source: patent publication US7056508 (NEW YORK UNIVERSITY, dated 2006)

B3: murine receptor-type protein tyrosine phosphatase-κ (RPTPκ) precursor protein (receptor)
chain: ALGQFSAGGCTFDDGPGACDYHQDLYDDFEWVHVSAQEPHYLPPEMPQGSYMVVDSSNHDPGEKARLQLPTMKENDTHCIDFSYLLYSQKGLNPGTLNILVRVNKGPLANPIWNVTGFTGRDWLRAELAVSTFWPNEYQVIFEAEVSGGRSGYIAIDDIQVLSYPCDKSPHFLRLGDVEVNAGQNATFQCIATGRDAVHNKLWLQRRNGEDIPVAQTKNINHRRFAASFRLQEVTKTDQDLYRCVTQSERGSGVSNFAQLIVREPPRPIAPPQLLGVGPTYLLIQLNANSIIGDGPIILKEVEYRMTSGSWTETHAVNAPTYKLWHLDPDTEYEIRVLLTRPGEGGTGLPGPPLITRTKCAEPMRTPKTLKIAEIQARRIAVDWESLGYNITRCHTFNVTICYHYFRGHNESRADCLDMDPKAPQHVVNHLPPYTNVSLKMILTNPEGRKESEETIIQTDEDVPGPVPVKSLQGTSFENKIFLNWKEPLEPNGIITQYEVSYSSIRSFDPAVPVAGPPQTVSNLWNSTHHVFMHLHPGTTYQFFIRASTVKGFGPATAINVTTNISAPSLPDYEGVDASLNETATTITVLLRPAQAKGAPISAYQIVVEQLHPHRTKREAGAMECYQVPVTYQNALSGGAPYYFAAELPPGNLPEPAPFTVGDNRTYKGFWNPPLAPRKGYNIYFQAMSSVEKETKTQCVRIATKAAATEEPEVIPDPAKQTDRVVKIAGISAGILVFILLLLVVIVIVKKSKLAKKRKDAMGNTRQEMTHMVNAMDRSYADQSTLHAEDPLSLTFMDQHNFSPRLPNDPLVPTAVLDENHSATAESSRLLDVPRYLCEGTESPYQTGQLHPAIRVADLLQHINLMKTSDSYGFKEEYESFFEGQSASWDVAKKDQNRAKNRYGNIIAYDHSRVILQPVEDDPSSDYINANYIDIWLYRDGYQRPSHYIATQGPVHETVYDFWRMVWQEQSACIVMVTNLVEVGRVKCYKYWPDDTEVYGDFKVTCVEMEPLAEYVVRTFTLERRGYNEIREVKQFHFTGWPDHGVPYHATGLLSFIRRVKLSNPPSAGPIVVHCSAGAGRTGCYIVIDIMLDMAEREGVVDIYNCVKALRSRRINMVQTEEQYIFIHDAILEACLCGETAIPVCEFKAAYFDMIRIDSQTNSSHLKDEFQTLNSVTPRLQAEDCSIACLPRNHDKNRFMDMLPPDRCLPFLITIDGESSNYINAALMDSYRQPAAFIVTQYPLPNTVKDFWRLVYDYGCTSIVMLNEVDLSQGCPQYWPEEGMLRYGPIQVECMSCSMDCDVINRIFRICNLTRPQEGYLMVQQFQYLGWASHREVPGSKRSFLKLILQVEKWQEECEEGEGRTIIHCLNGGGRSGMFCAIGIVVEMVKRQNVVDVFHAVKTLRNSKPNMVEAPEQYRFCYDVALEYLESS
notes: Full-length cDNA expressed in HeLa, COS, Drosophila S2 and rat L6 cells, tested on cells or in their lysates; It is partly cleaved at RTKR (640-643) into 110 kDa and 100 kDa products; also called RPTPase-κ; wt RPTPκ

Experiments:
[1] = molecular target: B3; experiment: cell-to-substrate adhesion, L6 cells on a K2AP-coated surface
[2] = molecular target: B3; experiment: cell-to-substrate adhesion, induced S2-R-PTP-κ cells on the coated dish
[3] = molecular target: the molecule itself; experiment: co-aggregation of diI-labelled and unlabelled S2 cells, fluorescence microscopy
Text: FIGS. 23A–23C. […] Two different cell populations, one of which had been labeled with the fluorescent dye diI (J. Schiessinger et al. Science 195, 307, (1977)), were allowed to co-aggregate and the resulting aggregates inspected by visible and fluorescence microscopy. diI-fluorescence is white in the photographs.

[4] = molecular target: [32P]-tyrosine phosphorylated myelin basic protein; experiment: cell-based or functional assay
Chain of [32P]-tyrosine phosphorylated myelin basic protein (P02687 whole entry): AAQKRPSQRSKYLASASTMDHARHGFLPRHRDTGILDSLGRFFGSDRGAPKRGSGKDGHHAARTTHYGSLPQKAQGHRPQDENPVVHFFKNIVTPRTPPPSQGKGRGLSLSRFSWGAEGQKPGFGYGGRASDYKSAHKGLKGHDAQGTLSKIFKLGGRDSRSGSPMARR

B1: K2AP fusion protein (amino acids 1-639 of the RPTPκ proprotein fused to human placental alkaline phosphatase) (other)
chain: ALGQFSAGGCTFDDGPGACDYHQDLYDDFEWVHVSAQEPHYLPPEMPQGSYMVVDSSNHDPGEKARLQLPTMKENDTHCIDFSYLLYSQKGLNPGTLNILVRVNKGPLANPIWNVTGFTGRDWLRAELAVSTFWPNEYQVIFEAEVSGGRSGYIAIDDIQVLSYPCDKSPHFLRLGDVEVNAGQNATFQCIATGRDAVHNKLWLQRRNGEDIPVAQTKNINHRRFAASFRLQEVTKTDQDLYRCVTQSERGSGVSNFAQLIVREPPRPIAPPQLLGVGPTYLLIQLNANSIIGDGPIILKEVEYRMTSGSWTETHAVNAPTYKLWHLDPDTEYEIRVLLTRPGEGGTGLPGPPLITRTKCAEPMRTPKTLKIAEIQARRIAVDWESLGYNITRCHTFNVTICYHYFRGHNESRADCLDMDPKAPQHVVNHLPPYTNVSLKMILTNPEGRKESEETIIQTDEDVPGPVPVKSLQGTSFENKIFLNWKEPLEPNGIITQYEVSYSSIRSFDPAVPVAGPPQTVSNLWNSTHHVFMHLHPGTTYQFFIRASTVKGFGPATAINVTTNISAPSLPDYEGVDASLNETATTITVLLRPAQAKGAPISAYQIVVEQLHPH
notes: Secreted from baculovirus-infected High-Five cells and about 90% pure; K2AP-a was eluted at alkaline pH and K2AP-b with 50% ethylene glycol; they are the same protein; also called K2AP-a; K2AP-b; not shown: human placental alkaline phosphatase, fused in-frame as a tag
With B1 the “fold increase in adhesive capacity (RPTPκ-overexpressing L6 cells against parental L6 cells)” value [1] was 2.7 fold.

B2: secreted alkaline phosphatase (AP) control protein (enzyme, human, UniProt P05187 23-511, looked up)
chain: IIPVEEENPDFWNREAAEALGAAKKLQPAQTAAKNLIIFLGDGMGVSTVTAARILKGQKKDKLGPEIPLAMDRFPYVALSKTYNVDKHVPDSGATATAYLCGVKGNFQTIGLSAAARFNQCNTTRGNEVISVMNRAKKAGKSVGVVTTTRVQHASPAGTYAHTVNRNWYSDADVPASARQEGCQDIATQLISNMDIDVILGGGRKYMFRMGTPDPEYPDDYSQGGTRLDGKNLVQEWLAKRQGARYVWNRTELMQASLDPSVTHLMGLFEPGDMKYEIHRDSTLDPSLMEMTEAALRLLSRNPRGFFLFVEGGRIDHGHHESRAYRALTETIMFDDAIERAGQLTSEEDTLSLVTADHSHVFSFGGYPLRGSSIFGLAPGKARDRKAYTVLLYGNGPGYVLKDGARPDVTESESGSPEYRQQSAVPLDEETHAGEDVAVFARGPQAHLVHGVQEQTFIAHVMAFAACLEPYTACDLAPPAGTTDAAHPG
notes: About 50% pure; also called alkaline phosphatase control protein
B2: no binding (tested: 20 g/ml (so in the source) spotted) [2].

With B3 the binding result [3] was “binds” and the “PTPase activity in immune complexes (release of [32P]-phosphate)” value [4] was roughly 3 fold.
